Data published in patent US12145987B2, “Method for depleting cytotoxic T cells using an anti-LAG-3 antibody composition” (Daiichi Sankyo Company, Limited, priority 2017, dated 2024).

T1: binding of LAG-3 to MHC class II molecules (293T-hLAG-3 cells / Raji cells) (Homo sapiens, UniProt P18627)
T1 construct: expressed in transfected cells; host or cells: 293T cells, transient transfection (Lipofectamine 2000)
T1 sequence (P18627 23-525): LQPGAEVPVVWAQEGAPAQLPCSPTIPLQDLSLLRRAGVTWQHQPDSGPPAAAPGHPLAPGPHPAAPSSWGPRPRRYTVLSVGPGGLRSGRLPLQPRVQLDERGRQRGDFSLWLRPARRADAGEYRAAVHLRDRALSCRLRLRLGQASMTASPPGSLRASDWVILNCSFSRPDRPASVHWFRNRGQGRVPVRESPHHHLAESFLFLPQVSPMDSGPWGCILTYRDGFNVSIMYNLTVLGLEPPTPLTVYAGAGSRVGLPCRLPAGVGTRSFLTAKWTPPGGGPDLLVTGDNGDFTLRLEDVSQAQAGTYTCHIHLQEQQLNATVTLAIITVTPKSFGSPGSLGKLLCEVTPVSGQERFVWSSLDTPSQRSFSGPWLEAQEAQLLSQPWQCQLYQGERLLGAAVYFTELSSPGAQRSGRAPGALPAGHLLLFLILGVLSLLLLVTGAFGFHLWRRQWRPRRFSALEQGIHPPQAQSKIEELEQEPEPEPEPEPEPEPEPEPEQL


Columns and labels:
[1] = molecular target: T2, binding of LAG-3 to MHC class II molecules (Homo sapiens, UniProt P18627); experiment: LAG-3/MHC class II binding test (LAG-3-Fc binding to Raji cells, flow cytometry); settings: rat antibodies evaluated at 10 μg/mL
T2 construct: purchased R&D Systems, Inc
T2 sequence (P18627 with tags, fused parts or gaps limits assumed): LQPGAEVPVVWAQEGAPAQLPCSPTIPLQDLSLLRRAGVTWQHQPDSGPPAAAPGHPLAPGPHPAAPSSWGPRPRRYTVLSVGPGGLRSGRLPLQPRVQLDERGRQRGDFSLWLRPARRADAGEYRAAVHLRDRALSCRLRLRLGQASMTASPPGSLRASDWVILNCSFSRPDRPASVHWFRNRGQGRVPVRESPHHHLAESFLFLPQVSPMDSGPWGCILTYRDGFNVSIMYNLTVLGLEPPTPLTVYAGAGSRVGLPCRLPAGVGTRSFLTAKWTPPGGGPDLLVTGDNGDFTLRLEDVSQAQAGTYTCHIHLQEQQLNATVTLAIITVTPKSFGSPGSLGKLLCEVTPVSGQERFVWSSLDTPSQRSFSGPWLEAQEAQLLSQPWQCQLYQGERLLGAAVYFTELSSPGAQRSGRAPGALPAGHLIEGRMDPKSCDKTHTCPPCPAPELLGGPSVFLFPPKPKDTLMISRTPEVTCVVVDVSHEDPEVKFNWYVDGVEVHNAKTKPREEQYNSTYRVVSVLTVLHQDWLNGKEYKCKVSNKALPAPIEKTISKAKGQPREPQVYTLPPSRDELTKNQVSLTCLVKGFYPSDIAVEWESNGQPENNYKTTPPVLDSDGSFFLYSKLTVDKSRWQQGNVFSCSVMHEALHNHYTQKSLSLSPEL
Description: This was conducted according to a previous report (Non Patent Literature 8). That is, 20 μL/well of LAG-3-Fc (manufactured by R&D Systems, Inc.) diluted with RPMI1640 containing 10% FBS to 25 nM was added to a 96-well U-bottom microplate, and 20 μL/well of the hybridoma culture supernatant was added thereto, followed by stirring and standing at 4° C. for 20 minutes. Then, 10 µL/well (2.5×10^5 cells/well) of Raji cells, which endogenously highly express MHC class II molecules, was added thereto, followed by stirring and standing at 4° C. for a further 30 minutes. The cells were washed twice with PBS or a FACS buffer, then an Anti-Human IgG PE conjugate (manufactured by Jackson ImmunoResearch Laboratories, Inc.) diluted 200-fold with a FACS buffer was added thereto for suspension, followed by standing at 4° C. for 20 minutes. After washing with PBS or a FACS buffer, the cells were resuspended in PBS containing 1 to 2% paraformaldehyde, followed by detection using a flow cytometer (CantoII: manufactured by Becton, Dickinson and Company or FC500: manufactured by Beckman Coulter Inc). The data was analyzed using FlowJo (manufactured by Tree Star Inc.), and the percentage of inhibition was calculated by the following formula. Percentage of inhibition (%)=100−(A−B)/(C−B)×100 • A: Mean fluorescence intensity of each sample well • B: Mean fluorescence intensity of background
When adding LAG-3-Fc and the antibody, 20 μL of a medium was added each time. Except for that, the same operation as in the sample well was performed. • C: Mean fluorescence intensity of maximum binding
When adding the antibody, 20 μL of a medium was added thereto.

[2] = molecular target: T1, binding of LAG-3 to MHC class II molecules (293T-hLAG-3 cells / Raji cells); experiment: 293T-hLAG-3/Raji cell adhesion test; format: cell-based; settings: 10 μg/mL
Source text: In the LAG-3/MHC class II binding test according to Example 2)-3, the binding of the secondary antibody Anti-Human IgG PE conjugate for detecting binding of LAG-3-Fc to Raji cells could be inhibited by steric hindrance caused by binding of the anti-LAG-3 antibody to LAG-3-Fc, and thus the possibility of apparently showing a low fluorescence intensity cannot be completely excluded, despite the antibody not actually directly inhibiting the binding of LAG-3/MHC class II. Therefore, as an evaluation system without using a secondary antibody for detection, the following 293T-hLAG-3/Raji cell adhesion test system was constructed to evaluate the antibody.
Human LAG-3 expression plasmid pcDNA3.1/hLAG-3 was introduced into 293T cells using Lipofectamine 2000 (manufactured by Life Technologies Corp.), and the cells were inoculated onto a BioCoat poly-D-lysine-coated 96-well microplate (manufactured by Becton, Dickinson and Company) and cultured overnight. Meanwhile, Raji cells were labeled in a medium (RPMI1640 containing 10% FBS) with fluorescent dye BCECF-AM (manufactured by DOJINDO LABORATORIES, used at 10 μM) at 37° C. for 1 hour, followed by washing and then suspending in a medium to 1.6×10^6 cells/mL. After the transfection, the medium of the cells (293T-hLAG-3 cells) cultured overnight was removed, and 50 μL/well of a medium and 25 μL/well of an antibody solution were added thereto, followed by pre-incubation at 37° C. for 30 minutes. Thereafter, 25 μL/well of the BCECF-AM labeled Raji cells was added thereto, followed by centrifugation at 900 rpm for 30 seconds and incubation at 37° C. for 1 hour. After the reaction, the well was washed with medium two to three times to remove nonadherent cells, and the cells were lysed in 100 µL/well of a Tris buffer (25 mM, pH 8.0) containing 0.1% NP-40, to measure the fluorescence intensity of the well with a plate reader (ENVISION: manufactured by PerkinElmer Inc). The percentage of inhibition was calculated by the following formula.
Percentage of inhibition (%)=100−(A−B)/(C−B)×100 • A: Fluorescence intensity of each sample well • B: Fluorescence intensity of background
When adding the Raji cells and the antibody, a medium was added thereto. Except for that, the same operation as in the sample well was performed. • C: Fluorescence intensity of maximum binding
When adding the antibody, a medium was added thereto.

Row | Molecule | inhibitory activity in the LAG-3/MHC class II binding test [1] | inhibitory activity in the 293T-hLAG-3/Raji cell adhesion test [2]
1 | rLA204: anti-human LAG-3 rat monoclonal antibody; heavy chain variable region SEQ ID No: 2, light chain variable region SEQ ID No: 4 (antibody, listed as Rattus norvegicus, V domains shown) VH: EVELVESGGGLVQPGRSMKLSCAASGFTFRTYGMAWVRQAPTKGLEWVASISTGGGSTYYRDSVKGRFTISRDNAKSTLYLQMDSLRSEDTATYYCTTDLINYPGIGGFAFWGQGTLVTVSS VL: NIVMTQSPKSMSISVGDRVTMNCKASQNVYNNIAWYQQKPGKSPKLLIYYASNRYTGVPDRFTGSGSGTDFTLTIHSVQAEDAAFYYCQRLYNSPPTFGGGTKLELKRA | almost no inhibitory activity | almost no inhibitory activity
2 | rLA225: anti-human LAG-3 rat monoclonal antibody; heavy chain variable region SEQ ID No: 10, light chain variable region SEQ ID No: 12 (antibody, listed as Rattus norvegicus, V domains shown) VH: EVQLVESGGGLVQPGRSMKLSCVASGFTFSNYYMAWVRQAPTKGLEWVASISTGGGNTYYRDSVKGRFTISRDNAKSTLYLQMDSLRSEDTATYYCARPPYGYNYGWFTYWGQGTLVTVSS VL: DIQMTQSPASLSASLGETVTIECRASEDIHNGLVWYQQKPGKSPQLLIYNANSMHTGVPSRFSGSGSGTQYSLKINSLQSEDVASYFCQQYYNYPRTFGGGTKLELKRA | almost no inhibitory activity | almost no inhibitory activity
3 | rLA212: anti-human LAG-3 rat monoclonal antibody; heavy chain variable region SEQ ID No: 6, light chain variable region SEQ ID No: 8 (antibody, listed as Rattus norvegicus, V domains shown) VH: EVQLVESGGGLVQPGRSLKLSCAASGFTYRSYVMAWVRQAPTRGLEWVASISTGGGNTYYRDSVKGRFTISRDNAKNTLYLQMDSLRSEDTATYYCAEDMSNSGYGLFDYWGQGVMVTVSS VL: NIVMTQSPKSMSISVGDRVTMNCKAGQNVDNNIAWYQKKPGQSPKLLIYYASNRNTGVPDRFTGGGYGTDFTLTINSVQAEDAAFYYCQRISNSPYTFGAGTELELKRA | almost no inhibitory activity | almost no inhibitory activity

Other lines, results leading:

Row | inhibitory activity in the LAG-3/MHC class II binding test [1] | inhibitory activity in the 293T-hLAG-3/Raji cell adhesion test [2] | Molecule
4 | almost no inhibitory activity | almost no inhibitory activity | rLA1264: anti-human LAG-3 rat monoclonal antibody; heavy chain variable region SEQ ID No: 18, light chain variable region SEQ ID No: 20 (antibody, listed as Rattus norvegicus, V domains shown) VH: EVQLVESGGGLVQPGRSLKLSCAASGFTFSSYYMAWVRQAPTKGLEWVAYISNGGYSTYYRDSVKGRFTISRENAKSTLYLQMDSLRSEDTATYYCTITDHSGYRFTYWGQGTLVTVSS VL: DIQMTQSPSLLSASVGDRVTLSCKASQSIYNSLAWYQQKLGEAPKLLIYDANSLQTGIPSRFSGSGSGTDFTLTISSLQPEDVATYFCQKYYSGNTFGAGTKLELKRA
5 | almost no inhibitory activity | almost no inhibitory activity | rLA869: anti-human LAG-3 rat monoclonal antibody; heavy chain variable region SEQ ID No: 14, light chain variable region SEQ ID No: 16 (antibody, listed as Rattus norvegicus, V domains shown) VH: EVQLVESGGGLVQPGRSLKLSCAASGFTYRTYVMAWVRQGPTQGLEWVASISTGGVSTYYRDSVKGRFTISRDNAKNTLYLQMDSLRSEDTATYYCAKDMLNGYNSQGLFDYWGQGVMVTVSS VL: NIVMTQSPKSMSISVGDRVTMNCRASQNVDNTIAWYQQKPGQSPKLLIYFASDRYTGVPDRFTGGGYGTDFTLTINSVQAEDAAFYYCQRIYNSPLTFGSGTKLEIRRA
